Measurements from paper PMC11303871 (The Journal of Cell Biology, 2024).

Biological target: T1, 3xFlag::CYB-3 (in situ-tagged cyclin B3) (C. elegans, UniProt Q10654 1-385)
T1 sequence: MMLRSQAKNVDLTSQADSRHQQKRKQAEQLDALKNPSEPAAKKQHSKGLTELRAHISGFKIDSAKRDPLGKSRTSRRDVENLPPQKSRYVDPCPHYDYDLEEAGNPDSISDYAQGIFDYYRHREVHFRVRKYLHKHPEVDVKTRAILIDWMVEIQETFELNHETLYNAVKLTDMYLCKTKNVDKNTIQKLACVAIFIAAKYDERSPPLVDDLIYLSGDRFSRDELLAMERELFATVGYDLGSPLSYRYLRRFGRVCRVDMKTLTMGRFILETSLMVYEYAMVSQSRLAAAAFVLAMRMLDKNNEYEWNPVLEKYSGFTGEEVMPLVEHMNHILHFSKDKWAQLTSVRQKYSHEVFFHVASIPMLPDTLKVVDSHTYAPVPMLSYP
Assay: co-IP

B1: CDK-1 phosphorylated at T179 (pT179 CDK-1), endogenous (enzyme)
chain: not shown
modifications: phosphothreonine at 179 (pT179)
amount of pT179 CDK-1 bound relative to CYB-1: ~1.3 fold

B2: CDK-1 phosphorylated at Y33 (pY33 CDK-1), endogenous (enzyme)
chain: not shown
modifications: phosphotyrosine at 33 (pY33)
amount of pY33 CDK-1 bound relative to CYB-1: ~1.3 fold

B3: CDK-1 (C. elegans Cdk1), endogenous (enzyme)
chain: not shown
amount of CDK-1 bound relative to CYB-1: ~1.3 times
